Laboratory results from patent US20240207432A1 (BIOSION, published 2024).
Like-named read-outs stand apart in the source and are kept apart here.

What was measured:
[1] = target: T1, cynomolgus TROP2-his protein (cynomolgus monkey, UniProt P09758 27-272 (human entry), limits assumed); assay: SPR Biacore, antibody captured on anti-human IgG CM5 chip, TROP2-his analyte
T1 construct: no cleavage site is stated; also called Cynomolgus monkey TROP2-his protein; monkey TROP2
T1 chain: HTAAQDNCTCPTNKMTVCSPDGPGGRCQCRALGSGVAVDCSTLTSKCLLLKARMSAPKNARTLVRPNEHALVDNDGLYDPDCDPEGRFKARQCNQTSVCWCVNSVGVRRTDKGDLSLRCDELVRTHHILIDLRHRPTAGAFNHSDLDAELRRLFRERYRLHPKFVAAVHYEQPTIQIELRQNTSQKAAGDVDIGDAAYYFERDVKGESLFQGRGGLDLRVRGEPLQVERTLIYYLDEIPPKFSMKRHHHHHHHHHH
Experimental: (§1) Un-reacted moieties on the chip (biosensor) surface were blocked with ethanolamine. […] The antigen-antibody association kinetics was followed for 2 minutes and the dissociation kinetics was followed for 10 minutes. The association and dissociation curves were fit to a 1:1 Langmuir binding model using BIAcore evaluation software.

human TROP2-his protein [2] = target: T2, human TROP2-his protein (human, UniProt P09758 27-274); assay: as above
T2 construct: Biotin-labelled in the ELISAs, unlabelled analyte in Biacore; also called biotin-labeled human TROP2-his protein; biotin human Trop2-his
T2 sequence: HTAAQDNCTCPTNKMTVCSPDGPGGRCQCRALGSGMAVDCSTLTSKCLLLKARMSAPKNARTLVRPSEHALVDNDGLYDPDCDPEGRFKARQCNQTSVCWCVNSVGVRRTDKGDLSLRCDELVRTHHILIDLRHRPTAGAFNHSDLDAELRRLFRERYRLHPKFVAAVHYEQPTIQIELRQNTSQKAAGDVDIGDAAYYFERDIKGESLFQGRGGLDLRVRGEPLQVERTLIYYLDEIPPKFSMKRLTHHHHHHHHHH
Experimental: as §1

[3] = target: T3, full length human TROP2 on 293F-TROP2 cells (human, UniProt P09758 27-323); assay: FACS on 293F-TROP2 cells, MFI
T3 construct: also called 293F-TROP2 cells (clone ID #3A8); cell surface TROP2
T3 sequence: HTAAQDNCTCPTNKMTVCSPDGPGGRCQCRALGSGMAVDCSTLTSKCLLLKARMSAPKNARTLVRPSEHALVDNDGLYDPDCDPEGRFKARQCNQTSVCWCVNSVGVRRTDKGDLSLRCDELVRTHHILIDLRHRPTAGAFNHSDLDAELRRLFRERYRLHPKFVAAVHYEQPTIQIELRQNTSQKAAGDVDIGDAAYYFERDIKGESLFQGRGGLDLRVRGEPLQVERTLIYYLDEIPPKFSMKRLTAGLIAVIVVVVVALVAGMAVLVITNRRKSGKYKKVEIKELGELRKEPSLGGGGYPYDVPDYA

[4] = target: T3, full length human TROP2 on 293F-TROP2 …; assay: FACS on 293F-TROP2 cells, MFI; remark: listed apart in the source
Experimental: The 293F-TROP2 cells were harvested from cell culture flasks, washed twice and re-suspended in phosphate buffered saline (PBS) containing 2% v/v Fetal Bovine Serum (FACS buffer). […] Following an incubation of 40 minutes at 4° C. in dark, cells were washed twice and re-suspended in FACS buffer. Fluorescence was measured using a Becton Dickinson FACS Canto II-HTS equipment, and the MFI (mean fluorescence intensity) was plotted against antibody concentration. Data was analyzed using Graphpad Prism software and EC₅₀ values were reported.

[5] = target: T1, cynomolgus TROP2-his protein; assay: indirect ELISA, cynomolgus TROP2-his coated, OD(450-630)
human TROP2-his protein [6] = target: T2, human TROP2-his protein; assay: capture ELISA, antibody captured on anti-human IgG Fc coat, biotin human TROP2-his in solution, OD(450-630)
Experimental: (§2) Plates were washed once with wash buffer (PBS+0.05% v/v Tween-20, PBST) and then blocked with 200 μl/well blocking buffer (5% w/v non-fatty milk in PBST) for 2 hours at 37° C. […] Plates containing captured anti-TROP2 antibodies were incubated with biotin-labeled human TROP2-his protein (prepared in house, SEQ ID NO: 67, 56.7 ng/mL in 2.5% w/v non-fatty milk in PBST, 100 μl/well) for 40 minutes at 37° C., washed 4 times, and incubated with streptavidin conjugated HRP (1:10000 dilution in PBST, Jackson Immuno Research, Cat #016-030-084, 100 μl/well) for 40 minutes at 37° C. After a final wash, plates were incubated with 100 μl/well ELISA substrate TMB (Innoreagents, Cat #TMB-S-002) at room temperature. The reaction was stopped in 3-10 minutes at room temperature with 50 μl/well 1M H₂SO₄, and the absorbance of each well was read on a microplate reader using dual wavelength mode with 450 nm for TMB and 630 nm as the reference wavelength. The OD (450-630) values were plotted against antibody concentration. Data was analyzed using Graphpad Prism software and EC₅₀ values were reported.
For the capture ELISA, AffiniPure Goat Anti-Human IgG, Fcγ fragment specific (Jackson Immuno Research, Cat #109-005-098) was used instead of AffiniPure Goat Anti-Mouse IgG, Fcγ fragment specific, 100 μl/well.

human TROP2-his protein [7] = target: T2, human TROP2-his protein; assay: competitive ELISA: BM1 coated, antibody premixed with biotin human TROP2-his; blocked: binding of TROP2-his to coated BM1; partial only: OD falls from about 1.9 to a plateau of about 1.3
human TROP2-his protein [8] = target: T2, human TROP2-his protein; assay: capture ELISA, antibody captured on anti-human IgG Fc coat, biotin human TROP2-his in solution, OD(450-630); remark: listed apart in the source
Experimental: as §2
For the Capture ELISA, AffiniPure F(ab′)₂ Fragment Goat Anti-Human IgG, Fcγ fragment specific (Jackson Immunoresearch, Cat #109-006-008) was used instead of AffiniPure Goat Anti-Mouse IgG, Fcγ fragment specific, 100 μl/well.

[9] = target: T1, cynomolgus TROP2-his protein; assay: indirect ELISA, cynomolgus TROP2-his coated, OD(450-630)
[10] = target: T1, cynomolgus TROP2-his protein; assay: SPR Biacore, antibody captured on anti-human IgG CM5 chip, TROP2-his analyte
Experimental: as §1

human TROP2-his protein [11] = target: T2, human TROP2-his protein; assay: as above; remark: listed apart in the source
Experimental: as §1

human TROP2-his protein [12] = target: T2, human TROP2-his protein; assay: SPR Biacore T200, supernatant antibody captured on anti-human IgG CM5 chip, 40 nM human TROP2-his
Experimental: The goat anti-human IgG (GE healthcare, Cat #BR100839, Human Antibody Capture Kit) was covalently linked to a CM5 chip instead of goat anti-mouse IgG. […] The human TROP2-his protein at the concentration of 40 nM was used instead of serially diluted human TROP2-his protein.

B1: chimeric A1E4F7D4 (antibody, human IgG1, kappa, V domains shown)
VH: QVQLQQSGAELAKPGTSVKMSCEASGYSFTTHWIHWMKQRPGQGLEWIGTIFPSNAYAVYNQKFRDRAIMTADRSSTTAYIQLTGLTSEDSAVYYCARASYFDYWGQGTTLTVSS
VL: DILLTQSPATLSVSPGERVTFSCRASQNIGTSIHWFQQRTTGSPRLLIKYASESISGIPSRFSGSGSGTDFTLHINSVESEDIAHYYCQHSHSWPFTFGSGTKLEIQR
notes: also called chimeric antibody A1E4F7D4
In the case of B1, the Kd [1] is reported as 0.247 nM, the koff [1] is reported as 0.000171 s⁻¹ and the kon [1] is reported as 692000 M⁻¹ s⁻¹. It also gave a Kd (human TROP2-his protein [2]) of 0.0326 nM, a koff (human TROP2-his protein [2]) of 3.13e-05 s⁻¹ and a kon (human TROP2-his protein [2]) of 961000 M⁻¹ s⁻¹. The EC50 [3] was 0.36 nM, the EC50 [4] was 0.575 nM and the EC50 [5] was 0.237 nM. The EC50 (human TROP2-his protein [6]) was 0.0979 nM, the IC50 (human TROP2-his protein [7]) was 0.447 nM and the EC50 (human TROP2-his protein [8]) was 0.0732 nM. For the same binder, the EC50 [9] was 0.967 nM, the Kd [10] was 0.134 nM and the koff [10] was 0.000163 s⁻¹. It also gave a kon [10] of 1.22e+06 M⁻¹ s⁻¹, a Kd (human TROP2-his protein [11]) of 0.185 nM and a koff (human TROP2-his protein [11]) of 0.000194 s⁻¹. It also gave a kon (human TROP2-his protein [11]) of 1.05e+06 M⁻¹ s⁻¹.

B2: huA1E4F7D4-V21 (antibody, human IgG1, kappa, V domains shown)
VH: QVQLVQSGAEVKKPGASVKVSCKASGYSFTTHWIHWVRQAPGQGLEWIGTIFPSNAYAVYNQKFRDRATMTADTSISTAYIELSRLRSDDTAVYYCARASYFDYWGQGTTVTVSS
VL: EIVLTQSPATLSLSPGERATLSCRASQNIGTSIHWFQQKPGGSPRLLIYYASESISGIPSRFSGSGSGTDFTLTISSLEPEDFAVYYCQHSHSWPFTFGQGTKLEIKR
notes: Positions of the X residues are given in the claims; Tested as cell supernatant
For B2, the Kd (human TROP2-his protein [12]) was 0.188 nM, the koff (human TROP2-his protein [12]) was 0.000271 s⁻¹ and the kon (human TROP2-his protein [12]) was 1.44e+06 M⁻¹ s⁻¹.

B3: chimeric C1B3B12D2 (antibody, human IgG1, kappa, V domains shown)
VH: QVQLQQSGPELVRPGTSVKMSCKAAGYTFTKFWIGWVKQRPGHGLEWIGNIYPGGAYINYNENFKGKATLTADTFSSTAYMQLNSLTSADSAIYYCAREGSSGYWGQGTTLTVSS
VL: DIVMTQSPSSLTVTAGEKVTLSCKCSQSLLNSGTQENYLTWYQQKPGQPPKMLIYWASIREPGVPDRFTGSGSGTDFTLTINNVQAEDLAVYYCQHDYSYPFTFGSGTKLEIKR
For B3, the Kd (human TROP2-his protein [2]) was 0.125 nM, the koff (human TROP2-his protein [2]) was 9.54e-05 s⁻¹ and the kon (human TROP2-his protein [2]) was 763000 M⁻¹ s⁻¹. The EC50 [3] was 0.81 nM, the EC50 [5] was 0.26 nM and the EC50 (human TROP2-his protein [6]) was 0.111 nM.
